Measurements taken from patent US20230094463A1, “ANTIBODIES THAT DISRUPT THE INTERACTION OF GAL3 AND INSULIN RECEPTOR OR INTEGRINS AND METHODS OF USE THEREOF” (TrueBinding, Inc., priority 2019, published 2023).

B1: 12G5.D7: anti-Gal3 monoclonal antibody (antibody, V domains shown)
VH: QVQLKQSGAELVRPGASVKLSCKASGYTFTDYYINWVKQRPGQGLEWIARIYPGTGNTDYNEKFKGRATLTAEKSSSTAYMQLSSLTSEDSAVYFCARFAYYYGSGGYFDYWGHGTTLTVSS
VL: DILMTQSPSSMSVSLGDTVSITCHASQGINSNMGWLQQKPGKSFKGLIYHATNLEDGVPSRFSGSGSGADYSLTISSLESEDFADYYCVQYAQFPPTFGSGTKLEIK
B2: 23H9.2E4: anti-Gal3 monoclonal antibody (antibody, V domains shown)
VH: QIQLVQSGPELKKPGETVKISCKASGYTFTTYAMSWVKQAPGKGLKWMGWINTYSGVPTYADDLKGRFAFSLETSASTAYLQINNLKNEDTATYFCARGPYAMDYWGQGTSVTVSS
VL: DIQMTQTTSSLSASLGDRVTISCSASQGINNYLNWYQQKPDGTVKLLIYYASSLHSGVPSRFSGSGSGTDYSLTISNLEPEDIATYYCQQYSQVPYTFGSGTKLEIK
B3: mTB001: anti-GAL3 antibody used in mouse models (antibody)
heavy: QIQLVQSGPELKKPGETVKISCKASGYTFTNYGMNWVKQAPGKGLKWMGWINTNTGEPTYVEEFKGRFAFSLETSASTAYLQINNLKNEDTATYFCAPYDNFFAYWGQGTLVTVSAAKTTPPSVYPLAPVCGDTTGSSVTLGCLVKGYFPEPVTLTWNSGSLSSGVHTFPAVLQSDLYTLSSSVTVTSSTWPSQSITCNVAHPASSTKVDKKIEPRGPTIKPCPPCKCPAPNAAGGPSVFIFPPKIKDVLMISLSPIVTCVVVDVSEDDPDVQISWFVNNVEVHTAQTQTHREDYNSTLRVVSALPIQHQDWMSGKEFKCKVNNKDLGAPIERTISKPKGSVRAPQVYVLPPPEEEMTKKQVTLTCMVTDFMPEDIYVEWTNNGKTELNYKNTEPVLDSDGSYFMYSKLRVEKKNWVERNSYSCSVVHEGLHNHHTTKSFSRTPGK
light: DIVITQDELSNPVTSGESVSISCRSSKSLLYKDGKTYLNWFLQRPGQSPQLLIYLMSTHASGVSDRFSGSGSGTDFTLEISRVKAEDVGVYYCQQLVDYPLTFGAGTKLELKRADVAPTVSIFPPSSEQLTSGGASVVCFLNNFYPKDINVKWKIDGSERQNGVLNSWTDQDSKDSTYSMSSTLTLTKDEYERHNSYTCEATHKTSTSPIVKSFNRNEC

Columns and labels:
[1] = target: T1, interaction of Gal3 and INSR (Homo sapiens, UniProt P17931); assay: ELISA of blocking of Gal3-INSR association by Gal3-binding antibodies
T1 construct: 6-histidine tag (linker-spaced); purchased Acro Biosystems (Gal3); Sino Biological (INSR) GA3-H5129; 11086-H08H
Method: Positively scoring wells were evaluated for the ability to block association of Gal3 and INSR. To identify Gal3-targeted antibodies with the ability to block the interaction of Gal3 and INSR, purified Gal3 and INSR proteins were incubated in the presence of Gal3-immunization hybridoma supernatants described above, or without antibody, and protein interaction was evaluated by ELISA. Human Galectin-3 protein (Acro Biosystems, GA3-H5129) was diluted in PBS (Corning, 21-030-CM) to a concentration of 3 μg/ml and added to the wells of a 96-well ELISA plate (Thermo Fisher, 44-2404-21). After incubating the plate at 4° C. overnight, the plate was washed three times with PBST (PBS with 0.05% Tween 20 [VWR, 0777]). The plate was then blocked for an hour with 2% BSA (EMD Millipore, 126609) in PBST at room temperature with gentle rocking. Thereafter, the 2% BSA in PBST was discarded and antibody or inhibitor (3-fold dilutions beginning at 20 μg/ml, 60 μg/ml, or 180 μM) in 2% BSA in PBST was added to the wells. Afterwards, 6 μg/ml of human Insulin Receptor (Sino Biological, 11086-H08H) in 2% BSA in PBST was added to the antibody or inhibitor in the wells in a 1:1 ratio. The plate was incubated for an hour at room temperature with gentle rocking. Thereafter, the plate was washed three times with PBST, and 0.3 μg/ml of human INSR Biotinylated Antibody (R&D Systems, BAF1544) in 2% BSA in PBST was added to the wells. The plate was incubated for an hour with gentle rocking and then washed three times with PBST. Avidin-HRP (1:2000) was then added to the wells. The plate was incubated at room temperature for an hour with gentle rocking and then washed three times with PBST. TMB substrate (Thermo Scientific, 34029) was then added to each well. The reaction was stopped with 1M HCl (JT Baker, 5620-02) and read using a plate reader (Molecular Devices) at absorbance of 450 nm.

[2] = target: T2, human Gal3 (Homo sapiens, UniProt P17931); assay: Antibody binning assays (competition for binding to Gal3); conditions: binning per Examples 3 and 18
T2 construct: His; purchased AcroBio GA3-H5129
Method: To determine whether Gal3-binding antibodies with Gal3-INSR blocking activity bind to the same or overlapping regions of the Gal3 molecule, antibody binning assays were performed to assess the ability of antibodies to simultaneously bind Gal3. Amine-reactive probes were loaded onto a Gator biosensor (Probe Life, Palo Alto, Calif.), equilibrated in dH20 for 60 seconds, dipped into 100 μl EDC 0.2M/NHS 0.05M activation buffer for 30 seconds, then dipped into a solution of […] human Gal3-His in 10 mM NaOAc buffer, pH 5 until binding was saturated, and quenched in 1 M ethanolamine pH 8.5 for 300 seconds. Following Gal3-His loading, tips were dipped in 20 μg/mL saturating antibody, then successively dipped into 5 μg/mL competing antibody.
The epitope binning assay was done in a sandwich format on the high-throughput SPR-based Carterra LSA unit (CarterraBio, Salt Lake City, Utah). First, the purified antibodies were diluted to 10 μg/ml concentration in 10 mM NaOAc (pH 5.0) and then were covalently coupled via amine group to HC200M chip activated by EDC and S-NHS to immobilize antibodies to different positions of a 384-spot array. One hundred thirty-eight binning cycles were run on the array of immobilized antibodies. In each cycle, first, human Gal3 (AcroBio GA3-H5129) was injected over the entire array to bind to different antibodies (primary antibody), followed by one antibody (secondary antibody) selected among the panel of 150 anti-GAL3 antibodies tested. At the end of each cycle, the array was regenerated by 10 mM Glycine (pH 2.0) to remove bound antigen and secondary antibody from the array. The data analysis was done using the Epitope software by CarterraBio.

[3] = system: Jurkat T cell adhesion; assay: Jurkat T cell adhesion assay on Gal-3/antibody coated plates; type: cell-based; conditions: recombinant Gal-3 pre-incubated with antibody, 10^5 cells per well
Method: To evaluate whether anti-GAL3 antibodies that block GAL3 interaction with integrin negatively influence lymphocyte homing (an important aspect in development of inflammatory diseases), a cell-based assay utilizing lymphocyte Jurkat T cell line was employed. Briefly, recombinant Gal-3 ([…] in PBS) and antibody ([…] in PBS) were incubated for 30 minutes on ice prior to the coating mixture transfer to the 96-well plate and additional overnight incubation. The coating mixture was then removed and the plate was blocked with 0.5% BSA for 45 minutes. Jurkat T cells (10^5 cells per well) were plated in serum free RPMI. Following thirty-minute incubation, the cells were gently washed once with serum free medium and fixed with 4% PFA for 10 minutes. The adhered cells were further stained with SYTOX™ Orange Nucleic Acid staining (ThermoFisher, S11368) and analyzed by Cytation 1 Cell Imaging Multi-Mode Reader (Biotek).

[4] = target: T3, Gal3 peptides (SEQ ID NOs: 3-26) (Homo sapiens, UniProt P17931); assay: Gal3 peptide library binding ELISA (epitope mapping)
T3 construct: a library of 24 amino acid peptides representing portions of Gal3; purchased LifeTein custom order
Method: (§1) To identify the epitopes to which Gal3 antibodies with and without Gal3-INSR blocking activity bound, a library of 24 amino acid peptides representing portions of Gal3, depicted in FIG. 27, was produced and the ability of each peptide to bind Gal3 antibodies was evaluated by ELISA. At least 2 μg/ml of hGal3 peptide in 50 μl of PBS or 0.1 μg/ml of full-length human Gal3 protein (GenScript) and human Galectin-3 protein (Acro Biosystems, GA3-H5129) were diluted in PBS (Corning, 21-030-CM) to concentrations of at least 2 μg/ml or 0.1 μg/ml, respectively, and added to the wells of a 96-well ELISA plate (Thermo Fisher, 44-2404-21). After incubating the plate at 4° C. overnight, the plate was washed three times with PBST (PBS with 0.05% Tween 20 [VWR, 0777]). The plate was then blocked for an hour with 2% BSA (EMD Millipore, 126609) in PBST at room temperature with gentle rocking. Thereafter, the 2% BSA in PBST was discarded and human Galectin-3 hybridoma supernatants or antibodies were diluted in 2% BSA in PBST to concentrations of at least 0.1 μg/ml and added to the wells. The plate was incubated for an hour at room temperature with gentle rocking and then washed three times with PBST. Afterwards, Goat Anti-Mouse IgG-HRP (Jackson ImmunoResearch, 115-036-1461) or Goat Anti-Rat IgG HRP (Abcam, ab205720) diluted in 2% BSA in PBST (1:4000) were added to the wells. The plate was incubated for 30 minutes to 1 hour at room temperature with gentle rocking and then washed three times with PBST. TMB substrate (Thermo Scientific, 34029) was then added to each well. The reaction was stopped with 1M HCl (JT Baker, 5620-02) and read using a plate reader (Molecular Devices) at absorbance of 450 nm.
(§2) Human Gal3 peptides (LifeTein, custom order) and human Gal3 proteins (R&D Systems, 8259-GA; TrueBinding, QCB200349) were diluted in PBS (Corning, 21-030-CM) to concentrations of at least 100 μg/mL (peptides) or 1 μg/mL (proteins), and added to the wells of several 96-well ELISA plates (Thermo Fisher, 44-2404-21). After incubating the plates at 4° C. overnight, the plates were washed three times with PBST (PBS with 0.05% Tween 20 [VWR, 0777]). The plates were then blocked for an hour with 2% BSA (EMD Millipore, 126609) in PBST at room temperature with gentle rocking. Thereafter, the 2% BSA in PBST was discarded and Gal3-binding antibodies (reformatted hIgG4 [S228P]) were diluted in 2% BSA in PBST to concentrations of 5 μg/mL and added to the wells. The plates were incubated for an hour at room temperature with gentle rocking and then washed three times with PBST. Afterwards, Peroxidase AffiniPure F(ab′)2 Fragment Goat Anti-Human IgG (H+L) polyclonal antibody (Jackson ImmunoResearch, 109-036-003), was diluted in 2% BSA in PBST (1:4000) and added to the wells. The plates were incubated for 1 hour at room temperature with gentle rocking and then washed three times with PBST. TMB substrate (Thermo Scientific, 34029) was then added to each well. The reaction was stopped with 1M HCl (JT Baker, 5620-02) and read using a plate reader (Molecular Devices) at absorbance of 450 nm.

[5] = system: Gal3 peptides (SEQ ID NOs: 3-26); assay: as above; set-up: species or system human; conditions: Peptide 8 (SEQ ID NO: 10)
Method: as §1, §2

[6] = system: NOD/ShiLtJ mice; conditions: 10 mg/kg twice a week
Text: To assess the therapeutic potential of anti-GAL3 antibody in Type I diabetes, a mouse model of diabetes type I was used. Briefly, seven-weeks-old female NOD/ShiLtJ mice (Jackson lab (001976)) and control group animals NOR/LtJ (Jackson Lab (002050)) were housed in standard disposable cages with filter tops at room temperature with a 6:00-18:00 day-night cycle. Mice were allowed to rest for a week before initiating glucose monitoring. The antibody treatment was initiated when glucose levels reach 250-400 (mg/dL) for two consecutive days. To establish glucose levels, the blood samples were collected from tail vein of the experimental animals following housing in clean cages with water and no food for 4-6 hours. The collected samples were analyzed by HemoCue Glucose 201 Analyzer and cuvettes (Mercedes Scientific 110706). […] At the end stage, the plasma samples were collected from symptomatic animals. C-peptide levels were determined by Alpco Mouse C-peptide ELISA kit (Alpco, 80-CPTMS-E01).

T2 sequence (P17931 whole entry): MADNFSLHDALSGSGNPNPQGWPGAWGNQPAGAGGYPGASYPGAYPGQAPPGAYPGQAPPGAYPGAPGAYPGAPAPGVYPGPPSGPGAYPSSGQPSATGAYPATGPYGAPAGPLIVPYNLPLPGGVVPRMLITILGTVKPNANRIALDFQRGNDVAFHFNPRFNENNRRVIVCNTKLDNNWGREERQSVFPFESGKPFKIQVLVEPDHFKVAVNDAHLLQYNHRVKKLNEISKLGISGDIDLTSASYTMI
T1 sequence (P17931 2-250 limits assumed): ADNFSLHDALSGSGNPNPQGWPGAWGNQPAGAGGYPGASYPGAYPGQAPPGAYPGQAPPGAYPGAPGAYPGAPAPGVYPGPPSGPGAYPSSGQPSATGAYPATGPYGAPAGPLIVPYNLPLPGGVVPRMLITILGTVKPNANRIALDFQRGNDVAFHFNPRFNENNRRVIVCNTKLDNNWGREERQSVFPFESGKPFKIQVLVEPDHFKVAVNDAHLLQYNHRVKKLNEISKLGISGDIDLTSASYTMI

| Molecule | Gal3-INSR blocking activity (in words) [1] | epitope bin (competitive binding to Gal3) [2] | inhibition of Jurkat T cell adhesion [3] | binding to Gal3 Peptide 1 ([4]; Peptide 1 (SEQ ID NO: 3), amino acids 1-20 of Gal3) | binding to Gal3 Peptide 6 ([4]; Peptide 6 (SEQ ID NO: 8), amino acids 51-70 of Gal3) | binding to Gal3 Peptide 7 ([4]; Peptide 7 (SEQ ID NO: 9), amino acids 61-80 of Gal3) | binding to Gal3 Peptide 8 [5] | levels of blood glucose [6] | survival [6] | C-peptide levels ([6]; plasma ELISA) |
| --- | --- | --- | --- | --- | --- | --- | --- | --- | --- | --- |
| B1 | poorly block | bin 10 | – | – | – | – | – | – | – | – |
| B2 | – | bin 3 | did not inhibit | bind and bound | bind and bound | bind and bound | bind | – | – | – |
| B3 | – | – | – | – | – | – | – | stabilizing the levels of blood glucose | prolonged survival | restoring C-peptide levels |
